US9585933B2, “Therapeutic use of peptide inhibitors of NADPH oxidase; aerosolization as a delivery mechanism” (University of Pittsburgh—Of the Commonwealth System of …, priority 2011, dated 2017)

How the values were obtained:
[1] = target: T1, Nox2 oxidase (COS-Nox2 lysate: Nox2, p22phox, p47phox, p67phox) (Homo sapiens, UniProt P14598); experiment: Cell-free SOD-inhibitable cytochrome c reduction assay, O2- production in COS-Nox2 lysates; type: biochemical
T1 construct: host or cells: COS 7 cells, stably transfected; cell lysate used
T1 sequence (P14598 1-390): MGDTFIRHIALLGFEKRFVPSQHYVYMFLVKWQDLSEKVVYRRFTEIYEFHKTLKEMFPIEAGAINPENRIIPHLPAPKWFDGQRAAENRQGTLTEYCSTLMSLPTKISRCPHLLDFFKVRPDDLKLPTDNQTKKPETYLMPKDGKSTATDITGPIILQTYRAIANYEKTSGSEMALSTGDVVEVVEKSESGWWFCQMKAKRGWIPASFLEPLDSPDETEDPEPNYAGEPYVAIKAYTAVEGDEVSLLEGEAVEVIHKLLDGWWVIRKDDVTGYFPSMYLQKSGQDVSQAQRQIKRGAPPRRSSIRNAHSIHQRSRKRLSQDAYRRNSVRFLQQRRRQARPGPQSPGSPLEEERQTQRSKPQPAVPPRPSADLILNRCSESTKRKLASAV
Procedure: (§1) To test this hypothesis, the inhibitory activity of Nox2ds was assessed in cell-free assays using reconstituted systems expressing either Nox1, 2 or 4 oxidase. Nox 2 oxidase was recapitulated by stably transfecting COS 7 cells with Nox2, p22phox, p47phox, and p67phox (aka COS-Nox2). Nox1 oxidase was obtained by transfecting COS 7 cells with Nox1, p22phox, NOXO1 and NOXA1 (COS-Nox1), and Nox 4 oxidase was regenerated by transfection of COS 7 cells with Nox4 and p22phox. […] Our new data support selectivity of Nox2ds peptide in differentiating the contribution of Nox2 vs. Nox1 and Nox4 NADPH oxidase and its potential clinical use in ameliorating cardiopulmonary diseases.
COS-Nox2: COS 7 cells transfected with p22^phox, Nox2, p47^phox and p67^phox (M. Dinauer, Indiana University). (Price M O, McPhail L C, Lambeth J D, Han C H, Knaus U G, Dinauer M C. Blood. 2002 Apr. 15; 99(8):2653-61.)
Superoxide (O2^−) production was measured in COS-Nox1 and COS-Nox2 lysates by determining the rate of O2^− dismutase (SOD) inhibitable cytochrome c reduction and by electron paramagnetic resonance (EPR).
COS-Nox2, COS-Nox1/NOXO1/NOXA1, and COS-22 cells were suspended to a concentration of 5×10^7 cells/ml in ice-cold disruption buffer (8 mM potassium, sodium phosphate buffer, pH 7.0, 131 mM NaCl, 340 mM sucrose, 2 mM NaN3, 5 mM MgCl2, 1 mM EGTA, 1 mM EDTA, and protease inhibitor cocktail). The cells were lysed by five freeze/thaw cycles and passed through a 30-gauge needle five times to further lyse the cells. Cell disruption was confirmed by phase-contrast microscopy. The cell lysate was centrifuged at 1000 g for 10 min at 4° C. to remove unbroken cells, nuclei, and debris. Throughout all these procedures, extreme care was taken to maintain the lysate at a temperature close to 0° C. Superoxide production was calculated from the initial linear rate (over 10 min) of SOD-inhibitable cytochrome c reduction quantified at 550 nm using the extinction coefficient of 21.1 mM-1 cm-1 (Biotek Synergy 4 hybrid multimode microplate reader). The oxidase assay buffer consisted of 65 mM sodium phosphate buffer (pH 7.0), 1 mM EGTA, 10 μM FAD, 1 mM MgCl2, 2 mM NaN3, and 0.2 mM cytochrome c. The components of the cell-free system were added in the following order: oxidase assay buffer, cell lysate (5×10^5 cell equivalents/well), and Nox2ds/Scrmb Nox2ds peptides at a final concentration of 0.1, 0.3, 1.0, 3.0, and 10 μM. The plates were placed on an orbital shaker to mix contents for 5 min at 120 movements/min at room temperature. LIDS, an established lipid activator of phagocyte cell-free systems, was added at a concentration of 130 μM, and O2^− production was initiated by the addition of 180 μM NADPH. The concentration of Nox2ds peptide that caused 50% inhibition of O2^− production (IC50) in COS-Nox2 cell lysates was calculated by Prism 5 (GraphPad Software, La Jolla, Calif., USA).
Cytochrome C Assay. FIG. 3A. Rate of O2^− production in COS-Nox2 lysates pretreated with Nox2ds or scrambled control (Scrmb Nox2ds). O2^− production was initiated by the addition of NADPH and measured by the SOD-inhibitable cytochrome c reduction for 10 min.

[2] = target: T2, Nox2 oxidase (COS-Nox2 lysate) (Homo sapiens, UniProt P14598); experiment: EPR with spin probe CMH, O2- production in COS-Nox2 lysates; type: biochemical; details: 10 μM peptide, vehicle 36330±2658
T2 construct: host or cells: COS 7 cells, stably transfected; cell lysate used
T2 sequence (P14598 1-390): T1 sequence (P14598 1-390)
Procedure: as §1
The spin probe 1-hydroxy-3-methoxycarbonyl-2,2,5,5-tetramethylpyrrolidine hydrochloride (CMH; Alexis Corp., San Diego, Calif., USA) was used to examine O2^− production in COS-Nox2 cell lysates using a Bruker eScan table-top EPR spectrometer (Bruker Biospin, USA). Superoxide production was measured in oxidase assay buffer (65 mM sodium phosphate buffer, pH 7.0, 1 mM EGTA, 10 μM FAD, 1 mM MgCl2, 2 mM NaN3) supplemented with 50 μM CMH. […] Analyses of the EPR spectra peak heights were used to quantify the amount of O2^− produced by the lysates and were compared with buffer-only control spectra or spectra in the presence of 10 μM Nox2ds, 10 μM Scrmb Nox2ds, or 150 U/ml SOD. […]

inhibition of Nox2-oxidase O2- production (in words) ([1]; cytochrome c assay): did not inhibit
CM radical intensity (EPR, O2- production) [2]: 34142±6075
Sequence: CLRVTRQSR (Scrambled Nox2ds) [scrmb Nox2ds, reference compound]
rate of O2- generation, SOD-inhibitable reduction of cytochrome c ([1]; 10 μM peptide, 0 μM control 1.33±0.1): 1.44±0.2 nmol O2^−/min/10^7 lysate-cell equivalents
